In the supplement of paper PMC10567573:
± gives the standard deviation.

Assay: protein stability index of a GFP-peptide fusion (GPS, HEK-293T) (PSI 1-6); higher = more stable
[1] = treatment: DMSO, c terminus: a fixed tail appended
[2] = treatment: MLN4924 1 uM, 8 h, c terminus: a fixed tail appended
[3] = treatment: DMSO, c terminus: native
[4] = treatment: MLN4924 1 uM, 8 h, c terminus: native
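Note: 24-mer peptide tiles fused after GFP, lentivirally expressed, FACS-sorted into six equal bins by GFP/DsRed ratio, decoded by Illumina sequencing, PSI is the read-weighted mean bin number.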

Sequence | protein stability index [1] | protein stability index [2] | protein stability index [3] | protein stability index [4]
KEAQYIRTERVEQAFRAIDRGDYY [PCMTD1] | 3.31 ± 0.33 | 3.34 ± 0.28 |  | 
KELGQSQKEQGLSDNILSPVMNGG [PDZK1] | 4.73 ± 0.34 | 5.09 ± 0.28 |  | 
KELGTLIPKSSDPEMRWNKGTILK [TFE3] | 4.06 ± 0.28 | 4.01 ± 0.14 |  | 
KEPPLLLGVLHPNTKLRQAERLFE [APMAP] | 2.64 ± 0.38 | 2.78 ± 0.47 |  | 
KETLAVNYEKEEEFLTNELSRKLM [CCDC6] | 4.05 ± 0.25 | 4.44 ± 0.27 |  | 
KEYDVARNTGAYTSSGLATASFRT [TEKT4] | 3.6 ± 0.26 | 3.69 ± 0.14 |  | 
KGAILTTMLATRNFSAAKSLLKKP [CAMK2D] | 2.82 ± 0.53 | 2.8 ± 0.32 |  | 
KGAVNLHMEEEVEDFLLKKPIVPT [CDC25A] | 4.14 ± 0.31 | 4.13 ± 0.2 |  | 
KGCSLEQISMELAKVNYVKNNICF [SLC2A12] | 2.22 ± 0.35 | 2.27 ± 0.28 |  | 
KGGVQNFNKDLVQDCGFEHLVPVI [CEP70] | 2.53 ± 0.13 | 3.18 ± 0.46 |  | 
KGLSVEFALLADKAAQQGKQEEND [SNX8] | 5.237 ± 0.033 | 5.13 ± 0.21 |  | 
KGTEKQTTSETQKSVQCGTWTKHA [NETO1] | 4.84 ± 0.26 | 4.82 ± 0.13 |  | 
KIKPEARRYLEKSIKMGKRNGLHL [NLN] | 2.3 ± 0.44 | 2.53 ± 0.39 |  | 
KILYDDGKMVEEVDGRATQKLIVN [PTPRD] | 3.92 ± 0.34 | 3.605 ± 0.004 |  | 
KIRLRCQKGIPPSLRGRAWQYLSG [TBC1D10A] | 2.21 ± 0.094 | 2.09 ± 0.23 |  | 
KKAAESLRRSVEKYNSARADFEQK [FCHO1] | 4.2 ± 0.18 | 4.43 ± 0.29 |  | 
KKENKMTWAPKNKGGEERKAEGGE [IRX6] | 5.39 ± 0.2 | 5.51 ± 0.27 |  | 
KKSNSPGTASSGSSRLPQPSGAGK [ZC2HC1A] | 5.25 ± 0.19 | 5.23 ± 0.14 |  | 
KKTQETLSQAGQKTSAALSTVGSA [TPD52L2] | 4.87 ± 0.24 | 4.99 ± 0.25 |  | 
KKYRLTEHERAHRGEKPHGCSLCG [ZNF649] | 3.72 ± 0.37 | 3.85 ± 0.36 |  | 
KLKVQALKDRGLSIPRADTLDEY [LSM1] |  |  | 4.01 ± 0.2 | 4.04 ± 0.33
KLLMADQDSPLDLTVRKSQSEPSE [LCOR] | 4.82 ± 0.28 | 4.921 ± 0.036 |  | 
KLYTGPGLAIHCMQVHKETIDAVP [ZNF207] | 2.5 ± 0.36 | 2.61 ± 0.3 |  | 

Sequence | protein stability index [1] | protein stability index [2] | protein stability index [3] | protein stability index [4]
KNLQQTTNTTSTQMTNIGVYVSNM [IQUB] | 3.25 ± 0.29 | 3.17 ± 0.22 |  | 
KNQGEENGFPDSTGDPLPEISKDN [EDARADD] | 5.5 ± 0.15 | 5.54 ± 0.067 |  | 
KPKPPPNSEGEQGPNGSQNSSYSQ [CCNC] | 5.43 ± 0.14 | 5.55 ± 0.18 |  | 
KPPPNSEGEQGPNGSQNSSYSQS [CCNC] |  |  | 5.36 ± 0.24 | 5.41 ± 0.27
KQDLVPGSPDDSHPKDGPSPGGTL [DLC1] | 5.53 ± 0.25 | 5.37 ± 0.43 |  | 
KQLKPWCWYCNRDFDDEKILIQHQ [ZNF207] | 2.21 ± 0.45 | 2.46 ± 0.59 |  | 
KQQLVDAFLKLAKQRSVCTWGKNK [FAN1] | 2.31 ± 0.21 | 2.25 ± 0.16 |  | 
KQRGYFFLDERLYCESHAKARVKP [PDLIM4] | 2.81 ± 0.64 | 3.11 ± 0.38 |  | 
KQTIGNSCKACGYRGMLDTHHKLC [EIF5] | 2.8 ± 0.37 | 2.81 ± 0.5 |  | 
KREELCRQIQEEEDEKQRLQNEVR [SSNA1] | 5.01 ± 0.22 | 5.1 ± 0.075 |  | 
KRGFEVVYMTEPIDEYCVQQLKEF [HSP90AB1] | 2.56 ± 0.35 |  |  | 
KRKRVKQRINTYVFVGNQLIPQPL [PCMTD1] | 2.38 ± 0.17 | 2.73 ± 0.35 |  | 
KSGEGFIDFIGQVHKTKEQFGQDG [PTPRD] | 4.24 ± 0.49 | 4.23 ± 0.17 |  | 
KSLEGGGTAFDAETDSEMNSQESR [SMG5] | 5.5 ± 0.15 | 5.58 ± 0.15 |  | 
KSMAWCENSICVGFKRDYYLIRVD [VPS39] | 3 ± 1.3 | 2.39 ± 0.89 |  | 
KSPEMPVILEVSLEGSHDTANCEA [RTP4] | 4.85 ± 0.11 | 5.07 ± 0.34 |  | 
KSSIIPFRALKRPLQFLGLFENSL [ZER1] | 1.9 ± 0.5 | 2.31 ± 0.45 |  | 
KTMPKSVVGLHAASKDPREVREAR [EHMT1] | 4.78 ± 0.09 | 4.86 ± 0.26 |  | 
KTPEEAYRALLSGSNPPYLPFRDA [CDC14A] | 3.27 ± 0.3 | 3.31 ± 0.25 |  | 
KTPYDTSRRQEKSAGDADPENGEI [ELOA2] | 5.3 ± 0.22 | 5.51 ± 0.17 |  | 
KVFEELLLDADWSINAGSWMWLSC [CRY1] | 2.28 ± 0.49 | 2.58 ± 0.27 |  | 
KVHYLFPDGKEMAEEYDEKTSELL [DPCD] | 4.32 ± 0.25 | 4.42 ± 0.12 |  | 
KVQELMSTHELEKKELEENFEKLR [MTUS2] | 4.97 ± 0.54 | 5.14 ± 0.23 |  | 

Sequence | protein stability index [1] | protein stability index [2] | protein stability index [3] | protein stability index [4]
LACGTMSSTCGQLASYPLALVRTR [SLC25A25] | 1.96 ± 0.16 | 2.36 ± 0.12 |  | 
LAGGYTSSLACHRALQDAFSGLFW [MNAT1] | 2.44 ± 0.12 | 2.45 ± 1 |  | 
LAGLSVGRSSLTACSLPLCACLLG [PXN] | 2.33 ± 0.39 | 2.33 ± 0.22 |  | 
LASISTYGFRGEALASISHVAHVT [MLH1] | 2.19 ± 0.48 | 2.19 ± 0.23 |  | 
LAVLGADERIFSLTRRLAHGEELR [HAGHL] | 2.82 ± 0.23 | 2.81 ± 0.38 |  | 
LCDGNPRRPSPVLRHLELLDEFAR [SCNN1D] | 3.26 ± 0.087 | 3.53 ± 0.26 |  | 
LCKNLNREAQQYSEALASTRILKH [GLIPR2] | 3.57 ± 0.32 | 3.74 ± 0.33 |  | 
LCLNTEDSFVCQCSEGFLINEDLK [MATN2] | 3.03 ± 0.28 | 3.38 ± 0.28 |  | 
LCTPEGWFSCQGPFDMDSCLSRHS [DFFB] | 2.52 ± 0.5 | 2.75 ± 0.38 |  | 
LDAVENQLKWASWELHSLRHCDDD [ZNF24] | 3.96 ± 0.12 | 4.03 ± 0.15 |  | 
LDDEDDDEEDCPNPEEYNLDEPNA [SRPK2] | 5.57 ± 0.22 | 5.58 ± 0.24 |  | 
LDHLSLGEEPVPHQQVEEALSFTL [NEK8] | 4.1 ± 0.35 | 4 ± 0.29 |  | 
LDLKGNNLRAAGAEALGKLLQQNK [LRRC45] | 4.39 ± 0.19 | 4.27 ± 0.097 |  | 
LDLRVKGILSSQAEGLANGPDVLE [EHMT1] | 4.12 ± 0.2 | 4.07 ± 0.39 |  | 
LDVVDNQTEKLDTNITEVDAASVY [CASP6] | 5.06 ± 0.15 | 5.25 ± 0.15 |  | 
LEEFKENAYKDLAWKHGNIHLSAP [PCMTD2] | 3.33 ± 0.26 | 3.81 ± 0.12 |  | 
LEEKDRVLKKQDAFYKEQLARLEE [CHCHD3] | 5.04 ± 0.25 | 5.17 ± 0.24 |  | 
LEKEQVAHIRAERDILVEADGAWV [STK38L] | 3.8 ± 0.31 | 3.916 ± 0.026 |  | 
LESSDLPVALLLAQHKDRSTQLEM [MNAT1] | 3.47 ± 0.23 | 3.53 ± 0.3 |  | 
LFAELGYFTDTDELQLEAANETYE [ATF6] | 4.04 ± 0.1 | 4.15 ± 0.24 |  | 
LFDFDLEVKPVLEVLVGKTIEQSL [RSPH3] | 2.48 ± 0.42 | 2.42 ± 0.039 |  | 
LFLKEGACDELFSYLIEKVKRKKN [PRAME] | 2.18 ± 0.5 | 2.21 ± 0.27 |  | 
LFSEASECMLLVFGIDVKEVDPTG [MAGEA10] | 2.3 ± 0.69 | 2.54 ± 0.21 |  | 

Sequence | protein stability index [1] | protein stability index [2] | protein stability index [3] | protein stability index [4]
LFVGLYYNVIIGWSIFYFFKSFQY [SLC6A17] |  | 3.17 ± 1.5 |  | 
LFVTVTAVNLSVSTLPSLREEEEQ [KCNG1] | 2.13 ± 0.34 | 2.18 ± 0.45 |  | 
LGTKSCSSSCAVHDLIFWRDVKKT [RTN3] | 2.29 ± 0.45 | 2.09 ± 0.33 |  | 
LHAWQINWPARQRGTHAVVGVATA [SPSB4] | 2.39 ± 0.25 | 2.31 ± 0.21 |  | 
LHDARLLRTIPSPYPASKADIPSV [DCAF4] | 3.36 ± 0.21 | 3.43 ± 0.11 |  | 
LICFCRESRYMDQWVPVINLPER [GADD45A] |  |  | 2.98 ± 1.1 | 2.87 ± 0.84
LIGLPPEDDWPRDVSLPRGAFPPR [CDK4] | 3.49 ± 0.32 | 3.69 ± 0.23 |  | 
LIRSLFHGFLFMIFQIGVLGFGPT [SOAT1] | 3.52 ± 0.5 | 3.28 ± 0.63 |  | 
LISCSEDGSVRIWELREKQQLAAE [WDR41] | 2.89 ± 0.28 | 2.97 ± 0.2 |  | 
LISQCGKPVVNVSYRPAYDQGGPV [DUSP5] | 2.61 ± 0.38 | 2.6 ± 0.42 |  | 
LKKKHQLLEDARRKGMPFAQWDGP [PPFIA4] | 3.11 ± 0.37 | 3.31 ± 0.14 |  | 
LKKMGKRLDYLNLKGARLTVEQGC [FBXO39] | 2.62 ± 0.34 | 2.67 ± 0.28 |  | 
LKLSIMSEEELTHIFGDLDSYIPL [NET1] | 2.21 ± 0.1 | 2.28 ± 0.2 |  | 
LKRKGKTDSPWIKPARKRRRRSRK [EHMT1] | 5.1 ± 0.17 | 5.03 ± 0.23 |  | 
LLAKMFGAKDSELASQNKPLWQCY [PDS5B] | 2.57 ± 0.66 | 2.3 ± 0.31 |  | 
LLCLFFGIPWEAGARQISYSIPEE [PCDHGA10] | 1.94 ± 0.035 | 2.45 ± 0.41 |  | 
LLLGSPHPAATALHAELCQAGSSQ [LPCAT4] | 3.01 ± 0.42 | 3.18 ± 0.21 |  | 
LLLLQVSSSYAGQFRVIGPRHPIR [MOG] | 2.53 ± 0.51 | 2.04 ± 0.22 |  | 
LLSKKGALQSRAAQRHRGSAKDGG [PLEKHN1] | 4.31 ± 0.12 | 4.39 ± 0.28 |  | 
LNATSKFMEFYQDVKDWWLFGFYF [EDNRA] | 2.49 ± 0.86 | 2.13 ± 0.37 |  | 
